Values of other authors as cited in PMC7101271.

Biological target: Rab7 (UniProt P51149)
Sequence of UniProt P51149 (P51149 2-207): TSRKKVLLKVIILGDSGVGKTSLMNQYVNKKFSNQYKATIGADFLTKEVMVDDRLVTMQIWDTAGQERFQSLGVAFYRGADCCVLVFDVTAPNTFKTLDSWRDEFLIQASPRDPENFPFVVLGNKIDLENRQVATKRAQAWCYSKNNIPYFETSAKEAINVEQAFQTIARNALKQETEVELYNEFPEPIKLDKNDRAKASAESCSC

Kd: > 50 µM
Substance: GDI (from UniProt P21856)
